Where two headings read alike, the source gives them in different places.
Tests used:
[1] = target: T1, human tumor necrosis factor alpha (hTNFa) (human, UniProt P01375 77-233); test: ELONA
[2] = target: T1, human tumor necrosis factor alpha …
[3] = target: T1, human tumor necrosis factor alpha …; test: ELONA; remark: listed apart in the source
[4] = target: T1, human tumor necrosis factor alpha …; test: ELONA; remark: listed apart in the source
[5] = target: T1, human tumor necrosis factor alpha …; remark: listed apart in the source

T1 sequence (P01375 77-233): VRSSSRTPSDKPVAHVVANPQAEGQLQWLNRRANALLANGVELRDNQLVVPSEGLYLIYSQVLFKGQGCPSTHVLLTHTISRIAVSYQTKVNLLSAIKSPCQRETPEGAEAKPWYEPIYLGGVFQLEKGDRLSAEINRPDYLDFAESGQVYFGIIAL

Binder | binding result [1] | other results
CGUUGUAGUAGUGGCUUGGGCAUAACUCAGUUAAACACUA (ssRNA) [20.4 random region] | binds | –
GGAGUAUCUGAUGACAAUUCGGAGCUCC (ssRNA) [T3.11.7 (28 nt)] | – | binding result [2]: binds
CAAGCCGAGGGGGAGUAUCUGAUGACAAUUCGGAGCUCCA (ssRNA) [11.7 random region] | – | binding result [3]: binds
CCCCGGGUUCUGUAUGAUCCGACCGGUCAGAUAAGACCAC (ssRNA) [3.1 random region] | binds | –
CGCAUCGUUUGCGUGGCGUGUCCGGGCGCCGAUUCGUAAA (ssRNA) [7.5 random region] | – | binding result [4]: binds
CAUGGGCUAGACCGGCAUAAAACUGCUGUAGUUGCACGCC (ssRNA) [17.9 random region] | binds | –
CGUGCUAGAUGCUACGAGUGGUCUCCUCACGUAGAAGGGG (ssRNA) [16.3 random region] | binds | –
UCAUGGUGUGUGAGUUAGCUCACGUGCCGUUUCGAAGGCG (ssRNA) [13.2 random region] | – | binding result [4]: binds
CGUAUAUACGGAUUAGGUUGUAGCUCAGACCAGUAAUGUC (ssRNA) [14.8 random region] | – | binding result [4]: binds
AGGACGUACUUGGAAAAGAGGCGCGAAGAACCUGGUAUGU (ssRNA) [8.6 random region] | binds | –
GGUCCCACAUAGGUUGGUCUUGUUGUAUGGGCUGUUUGCA (ssRNA) [18.10 random region] | binds | –
UACGGAUUAGGUUGUAGCUCAGACCAGUA (ssRNA) [T4.14.8 (29 nt)] | – | binding result [5]: binds
